In patent US20130224313A1 (CENTRO DE INGENIERIA GENETICA Y BIOTECNOLOGIA, published 2013):

Columns and labels:
[1] = target: T1, COMMD1 protein, amino acids 6-190 (two-hybrid clone L2-21) (human, UniProt Q8N668 6-190); experiment: yeast two-hybrid screen of a human liver cDNA library, verified by mating
T1 construct: range 6-190; Prey clone found in the two-hybrid screen; also called MURR1; not shown: fusion partner of the human liver cDNA library (prey) vector in strain Y187; not described
Protocol: (§1) FIG. 1. The figure illustrates the physical interaction between the L2 peptide and COMMD1. This was carried out by the technique of two hybrids in yeast. As negative controls were used the mating of the yeast strain AH109 transformed with the empty vector (pGBKT7) and the fragments of COMMD1 transformed with the Y187 strain. For the identification of the interaction, mating of the strain AH109 transformed with vector carrying the sequence of L2 and each COMMD1 fragment transformed into strain Y187 was carried out. As a positive control, the PCL1 mating bearing the GAL4 transcription factor was used. As it can be noted, the interaction occurs with the plasmids carrying the complete sequence of the COMMD1 gene and the construction containing the amino acids 110-190 of the COMMD1 protein.
(§2) corresponding to the L2 peptide sequence: […] For cloning these sequences in the pGBKT7 NcoI-BamHI vector, sequences complementary to these sites were added at the ends of the oligonucleotides. The pGBKL2-1 recombinant plasmid, which carries the L2 peptide sequence was verified by restriction analysis and sequencing. The plasmid was transformed into the AH109 yeast strain by the lithium acetate method and grown in SD-Trp medium. It was verified that it could not be self-activated when grown on SD-Trp-His plates. […]

[2] = target: T2, COMMD1 fragment, amino acids 110-190 (clone pGBKL2 (110-190)) (human, UniProt Q8N668 110-190); experiment: yeast two-hybrid with deletion clones
T2 construct: range 110-190; also called COMM domain; not shown: two-hybrid vector fusion partner; not described
Protocol: as §1, §2

T2 sequence (Q8N668 110-190): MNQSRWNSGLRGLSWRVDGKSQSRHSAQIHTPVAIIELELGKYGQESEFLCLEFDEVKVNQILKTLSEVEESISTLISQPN
T1 sequence (Q8N668 6-190): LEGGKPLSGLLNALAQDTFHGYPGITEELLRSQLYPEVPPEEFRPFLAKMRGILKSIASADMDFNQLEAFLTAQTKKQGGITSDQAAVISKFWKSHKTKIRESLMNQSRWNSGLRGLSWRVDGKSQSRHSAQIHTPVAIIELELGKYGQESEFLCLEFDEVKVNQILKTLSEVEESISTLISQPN

B1: L2 peptide expressed from plasmid pGBKL2-1 (pGBKT7 vector) in yeast strain AH109 (peptide)
chain: HARIKPTFRRLKWKYKGKFW
notes: Two-hybrid bait; not shown: fusion partner encoded by the pGBKT7 two-hybrid bait vector
B1: binds [1]; binds [2].
